{"source": "patent US20130245385A1", "molecular_target": "sHLA-A2 (soluble class I HLA-A2) (human)", "assay": "65 ml class I HLA SHARC, 24.4 mg W6/32 at 97 µg/ml in PBS"}
{"substance": "W6/32 pan class I HLA monoclonal antibody", "values": [{"measurement": "antibody recovered in the elution", "result": 8, "unit": "mg"}, {"measurement": "antibody that passed through the column", "result": 11.7, "unit": "mg"}]}
